This note sets out measurements from EP1073891B1, “METHOD OF PREDICTING RECEPTOR MODULATING ACTIVITY” (Duke University, priority 1998, dated 1999).

One test concerns the target T1, ERα (Homo sapiens, UniProt P03372).
T1 sequence (P03372 1-595): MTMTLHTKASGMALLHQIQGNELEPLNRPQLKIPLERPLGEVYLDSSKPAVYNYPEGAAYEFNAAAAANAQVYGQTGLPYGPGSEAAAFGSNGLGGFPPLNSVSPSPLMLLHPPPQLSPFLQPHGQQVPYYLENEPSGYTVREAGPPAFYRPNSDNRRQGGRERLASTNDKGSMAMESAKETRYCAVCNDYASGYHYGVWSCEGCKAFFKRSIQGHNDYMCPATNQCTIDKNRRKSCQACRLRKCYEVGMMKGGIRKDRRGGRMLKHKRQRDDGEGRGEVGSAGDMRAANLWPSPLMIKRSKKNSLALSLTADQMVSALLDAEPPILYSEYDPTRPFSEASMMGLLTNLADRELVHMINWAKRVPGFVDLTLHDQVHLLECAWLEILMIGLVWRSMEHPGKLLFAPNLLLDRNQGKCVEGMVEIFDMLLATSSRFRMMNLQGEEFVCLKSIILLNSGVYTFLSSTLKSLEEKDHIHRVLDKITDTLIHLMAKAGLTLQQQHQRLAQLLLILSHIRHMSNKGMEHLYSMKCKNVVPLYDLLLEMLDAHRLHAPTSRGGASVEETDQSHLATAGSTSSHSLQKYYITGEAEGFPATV
Kind of test: Phage ELISA / fingerprint on ER immobilized on biotinylated ERE (Examples 2.3-2.5). In kind it is binding. Also on record: purchased PanVera Corporation, Madison, WI; key to binding activity, ERα and buffer / binding activity, ERα and estradiol / binding activity, ERα and tamoxifen / binding of peptide, Class Specific Fingerprint on ERα: semiquantitative scale of 0 to 7+; 1+: semiquantitative scale of 0 to 7+; 2+: semiquantitative scale of 0 to 7+; 3+: semiquantitative scale of 0 to 7+; 4+: semiquantitative scale of 0 to 7+; 5+: semiquantitative scale of 0 to 7+; 6+: semiquantitative scale of 0 to 7+; semiquantitative scale of 0 to 7+. The note with it: for binding activity, ERα and estradiol: ERα and estradiol (1 µM); for binding activity, ERα and tamoxifen: ERα and tamoxifen (4-OH tamoxifen, 1 µM). In general terms: In an ELISA, binding on a coated surface is turned into a signal by an enzyme label.

The next test addresses ERβ (Homo sapiens, UniProt Q92731). Described as above. In kind it is binding. Also on record: purchased PanVera Corporation, Madison, WI; key: semiquantitative scale of 0 to 7+; 1+: semiquantitative scale of 0 to 7+; 2+: semiquantitative scale of 0 to 7+; 3+: semiquantitative scale of 0 to 7+; 4+: semiquantitative scale of 0 to 7+; 5+: semiquantitative scale of 0 to 7+; 6+: semiquantitative scale of 0 to 7+; semiquantitative scale of 0 to 7+. The note with it: for binding activity, ERβ and Estradiol: ERβ and Estradiol (1 µM); for binding activity, ERβ and tamoxifen: ERβ and tamoxifen (4-OH tamoxifen, 1 µM).

Where [1] appears, read: 4-OH Tamoxifen present during binding.
[2] abbreviates: 16a-OH Estrone present during binding.
Where [3] appears, read: Clomiphene present during binding.
[4] abbreviates: Estradiol present during binding.
[5] abbreviates: ICI 182,780 present during binding.
Where [6] appears, read: Nafoxidine present during binding.
[7] abbreviates: Premarin present during binding.
[8] abbreviates: Progesterone present during binding.
Setting [9] is: Raloxifene present during binding.

Chain of ERβ (Q92731 whole entry): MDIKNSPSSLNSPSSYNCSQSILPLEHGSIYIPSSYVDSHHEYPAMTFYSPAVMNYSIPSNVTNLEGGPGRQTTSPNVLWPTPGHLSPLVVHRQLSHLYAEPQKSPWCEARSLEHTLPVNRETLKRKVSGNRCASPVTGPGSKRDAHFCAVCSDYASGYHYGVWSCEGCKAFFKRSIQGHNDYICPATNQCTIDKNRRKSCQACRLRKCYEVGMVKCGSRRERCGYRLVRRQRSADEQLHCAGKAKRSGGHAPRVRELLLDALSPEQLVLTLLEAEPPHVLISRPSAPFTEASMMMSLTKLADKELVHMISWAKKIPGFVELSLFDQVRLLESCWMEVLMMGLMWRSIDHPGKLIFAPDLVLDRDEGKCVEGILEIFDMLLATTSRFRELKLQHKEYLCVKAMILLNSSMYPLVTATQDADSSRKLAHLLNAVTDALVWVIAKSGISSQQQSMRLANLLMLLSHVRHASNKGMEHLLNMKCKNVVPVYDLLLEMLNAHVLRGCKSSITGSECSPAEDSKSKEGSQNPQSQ

Take “S A A P R T I S H Y L M G G (SAAPRTISHYLMGG) [#48 ER]”: the “binding of peptide, Class Specific Fingerprint on ERα” value with ERα (setting [1]) was 1+; in the test with ERα (setting [2]), 2+; in the test with ERα (setting [3]) it was 1+; in the test with ERα (DES present during binding), 2+; with ERα (setting [4]) it was 2+; with ERα (Estriol present during binding) it was 4+. The “binding of peptide, Class Specific Fingerprint on ERα” value in the test with ERα (setting [5]) is recorded as 1+; with ERα (setting [6]), 1+; with ERα (setting [7]), 2+; in the test with ERα (setting [8]), 6+; with ERα (setting [9]), 1+; with ERα (buffer present during binding) it was 7+. For the same substance, the “binding of peptide, Class Specific Fingerprint on ERβ” value with ERβ (setting [1]) was 1+; in the test with ERβ (setting [2]) it was 3+; in the test with ERβ (setting [3]) it was 1+; in the test with ERβ (DES present during binding), 3+; with ERβ (setting [4]), 2+; with ERβ (Estriol present during binding), 6+. For the same substance, the “binding of peptide, Class Specific Fingerprint on ERβ” value in the test with ERβ (setting [5]) was 2+; in the test with ERβ (setting [6]) it was 4+; with ERβ (setting [7]), 4+; with ERβ (setting [8]) it was 6+; with ERβ (setting [9]), 4+; in the test with ERβ (buffer present during binding), 7+.

SSQWQAPWWYIDASR [Peptide 32E-β]: in the test with ERα, the “binding activity, ERα and buffer” value was 5+; the “binding activity, ERα and estradiol” value is recorded as 4+; the “binding activity, ERα and tamoxifen” value was 4+. For the same substance, in the test with ERβ, the “binding activity, ERβ and Estradiol” value was 7+; the “binding activity, ERβ and buffer” value is 5+; the “binding activity, ERβ and tamoxifen” value is 2+.

For the substance SRLPPSVFSMCGSEVCLSR [Peptide 9t-β], in the test with ERα, the “binding activity, ERα and buffer” value is recorded as 3+; the “binding activity, ERα and estradiol” value is on record as 3+; the “binding activity, ERα and tamoxifen” value is recorded as 6+. Besides, in the test with ERβ, the “binding activity, ERβ and Estradiol” value was 2+; the “binding activity, ERβ and buffer” value is given as 3+; the “binding activity, ERβ and tamoxifen” value is 7+.

Take SSRTLYCHLTSSNPEWCSR [Peptide 27E-β]: in the test with ERα, the “binding activity, ERα and buffer” value is 4+; the “binding activity, ERα and estradiol” value was 6+; the “binding activity, ERα and tamoxifen” value was 3+. For the same substance, in the test with ERβ, the “binding activity, ERβ and Estradiol” value is reported as 7+; the “binding activity, ERβ and buffer” value is 6+; the “binding activity, ERβ and tamoxifen” value is 2+.

SSGSSAGRLMMLLQDGVSR [Peptide 13E-β]: in the test with ERα, the “binding activity, ERα and buffer” value was 5+; the “binding activity, ERα and estradiol” value is 4+; the “binding activity, ERα and tamoxifen” value is 5+. In addition, in the test with ERβ, the “binding activity, ERβ and Estradiol” value is recorded as 6+; the “binding activity, ERβ and buffer” value is recorded as 2+; the “binding activity, ERβ and tamoxifen” value is recorded as 1+.

As for SSAGLLEDMLRSRSR [Peptide 21E-β], in the test with ERα, the “binding activity, ERα and buffer” value is 4+; the “binding activity, ERα and estradiol” value is listed as 5+; the “binding activity, ERα and tamoxifen” value is recorded as 3+. In the test with ERβ, the “binding activity, ERβ and Estradiol” value is 7+; the “binding activity, ERβ and buffer” value is reported as 3+; the “binding activity, ERβ and tamoxifen” value is on record as 1+.

For SSGPWLMHYLGGGSR [Peptide 7b-β], in the test with ERα, the “binding activity, ERα and buffer” value is 2+; the “binding activity, ERα and estradiol” value is reported as 4+; the “binding activity, ERα and tamoxifen” value is on record as 3+. Further, in the test with ERβ, the “binding activity, ERβ and Estradiol” value is 7+; the “binding activity, ERβ and buffer” value was 7+; the “binding activity, ERβ and tamoxifen” value is on record as 2+.

For SRSPILWHLLQDGSR [Peptide 10E-β], in the test with ERα, the “binding activity, ERα and buffer” value is reported as 5+; the “binding activity, ERα and estradiol” value was 6+; the “binding activity, ERα and tamoxifen” value is 4+. Moreover, in the test with ERβ, the “binding activity, ERβ and Estradiol” value was 7+; the “binding activity, ERβ and buffer” value is 4+; the “binding activity, ERβ and tamoxifen” value is recorded as 2+.

With SSISTYHMGEWFYAMLSSR [Peptide 22t-β], in the test with ERα, the “binding activity, ERα and buffer” value is 3+; the “binding activity, ERα and estradiol” value is on record as 4+; the “binding activity, ERα and tamoxifen” value is given as 6+. Further, in the test with ERβ, the “binding activity, ERβ and Estradiol” value is listed as 4+; the “binding activity, ERβ and buffer” value is listed as 5+; the “binding activity, ERβ and tamoxifen” value is listed as 7+.

For the substance SSTTWRCPEWYCGSR [Peptide 30E-β], in the test with ERα, the “binding activity, ERα and buffer” value is recorded as 4+; the “binding activity, ERα and estradiol” value was 3+; the “binding activity, ERα and tamoxifen” value was 3+. Also, in the test with ERβ, the “binding activity, ERβ and Estradiol” value is reported as 7+; the “binding activity, ERβ and buffer” value is on record as 6+; the “binding activity, ERβ and tamoxifen” value is 3+.

On to SRNECIGPWCLTISR [Peptide 13t-β], for which, in the test with ERα, the “binding activity, ERα and buffer” value is given as 3+; the “binding activity, ERα and estradiol” value is recorded as 2+; the “binding activity, ERα and tamoxifen” value is on record as 4+. In the test with ERβ, the “binding activity, ERβ and Estradiol” value is recorded as 7+; the “binding activity, ERβ and buffer” value is 7+; the “binding activity, ERβ and tamoxifen” value is given as 7+.

SSGPFYVGGMLWPADCLSR [Peptide 10t-β]: in the test with ERα, the “binding activity, ERα and buffer” value was 4+; the “binding activity, ERα and estradiol” value is reported as 3+; the “binding activity, ERα and tamoxifen” value was 6+. Also, in the test with ERβ, the “binding activity, ERβ and Estradiol” value was 2+; the “binding activity, ERβ and buffer” value is reported as 4+; the “binding activity, ERβ and tamoxifen” value was 7+.

SRPGCLRGVWCLADTPPSR [Peptide 20t-β]: in the test with ERα, the “binding activity, ERα and buffer” value was 2+; the “binding activity, ERα and estradiol” value was 2+; the “binding activity, ERα and tamoxifen” value is reported as 3+. In addition, in the test with ERβ, the “binding activity, ERβ and Estradiol” value is on record as 6+; the “binding activity, ERβ and buffer” value is given as 7+; the “binding activity, ERβ and tamoxifen” value is 7+.

For SRLEELLRVGVLTSR [Peptide 6E-β], in the test with ERα, the “binding activity, ERα and buffer” value is reported as 3+; the “binding activity, ERα and estradiol” value is on record as 5+; the “binding activity, ERα and tamoxifen” value is reported as 3+. Also, in the test with ERβ, the “binding activity, ERβ and Estradiol” value was 7+; the “binding activity, ERβ and buffer” value was 3+; the “binding activity, ERβ and tamoxifen” value is 1+.

As for SREGLLMRLLIGDSR [Peptide 14E-β], in the test with ERα, the “binding activity, ERα and buffer” value was 5+; the “binding activity, ERα and estradiol” value is given as 7+; the “binding activity, ERα and tamoxifen” value was 5+. Besides, in the test with ERβ, the “binding activity, ERβ and Estradiol” value is 7+; the “binding activity, ERβ and buffer” value is on record as 5+; the “binding activity, ERβ and tamoxifen” value is recorded as 2+.

Turning to SSWDFRVPWWYNNSR [Peptide 31E-β], in the test with ERα, the “binding activity, ERα and buffer” value is reported as 3+; the “binding activity, ERα and estradiol” value is recorded as 2+; the “binding activity, ERα and tamoxifen” value is on record as 3+. In the test with ERβ, the “binding activity, ERβ and Estradiol” value is 7+; the “binding activity, ERβ and buffer” value is listed as 3+; the “binding activity, ERβ and tamoxifen” value was 2+.

For the substance SSQEEWLLPWRLASR [Peptide 8t-β], in the test with ERα, the “binding activity, ERα and buffer” value was 2+; the “binding activity, ERα and estradiol” value is 2+; the “binding activity, ERα and tamoxifen” value is 2+. In the test with ERβ, the “binding activity, ERβ and Estradiol” value is reported as 5+; the “binding activity, ERβ and buffer” value is listed as 7+; the “binding activity, ERβ and tamoxifen” value is listed as 5+.
